Assay results reported in the supplement of paper PMC10567573.

B1: RAD54B (parent)
chain: YVQEKRDGLKRRQQLEEELLRAKI

Variants of: B1
Test: protein stability index of a GFP-peptide fusion (GPS, HEK-293T) (PSI 1-6); higher = more stable
Details: c terminus: a fixed tail appended
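Also: lentivirally expressed fusions sorted by FACS into six bins by GFP to DsRed ratio, PSI derived from sequencing read proportions per bin multiplied by bin number.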

Protein stability index of substitutions, site by site:
R11: E 3.22, H 2.93, Q 2.32, P 2.25, I 2.86, L 2.23, S 2.36, Y 1.97, V 2.13, W 2.46, T 2.46, A 2.82, G 2, M 2.07, D 2.62, F 1.69, K 2.44, N 2.67, C 1.81
E18: H 2.29, A 2.02, G 2.53, C 1.73, D 1.86, F 2.06
R12: E 2.34, H 2.18, P 1.96, W 1.89, M 2.02, G 2.25, N 2.41, C 2.25, I 1.99, V 2.04, Y 2.01, T 2.19, Q 2.35, L 1.98, F 2.28, A 1.85, D 3.23, K 2.47, S 2.06
Q14: M 1.75, D 2.2, F 2.12, H 1.94, C 1.77, P 1.99, G 2.33, E 2, N 1.65, I 1.76, V 2.01, A 1.93, T 1.75, S 1.67, K 2.35, R 2.09, W 2.12, Y 2.25, L 1.86
L9: P 2.36, S 1.99, N 2.35, R 1.79, Y 1.91, V 1.82, W 1.81, T 1.83, Q 2.26
L15: K 2.05, H 2.38, C 1.87, S 1.95, I 2.32, E 2.61, D 2.09, T 1.55, R 1.99, F 1.4, W 1.49, V 1.48, Q 1.7, N 2.05, M 2.56, Y 2.44, P 1.51, G 1.75, A 1.93
E17: K 1.9, P 1.98, G 2.35, R 2.44, N 2, Y 1.36, M 2.21, W 1.9, A 1.6, L 2.19, T 2.08, D 2.01, I 2.45, C 2.21, H 1.84, V 2.25, F 1.87, S 2.15, Q 1.51
Q13: Y 1.9, P 2.17, K 1.46, N 1.91, E 2.41, V 2.4, S 1.69, L 2.32, I 2.49, D 2.3, R 1.71, F 1.62, T 2.32, H 2.06, A 2.23, C 1.84, W 1.98, M 2.07, G 2.31
K10: P 2.55, C 1.83, V 2.9, D 2.04, T 2.5, E 2.58, F 1.6, I 1.97, H 2.4, A 2.04, S 2.49, L 2.28, W 1.47, R 1.98, M 2.46, N 2.41, Y 1.77, Q 2.5, G 2.28
E16: S 1.39, K 1.67, C 2.09, G 2.41, T 1.83, P 1.56, L 2.17, R 1.53, Y 1.73, I 1.51, F 2.74, A 1.98, Q 1.8, H 1.74, D 1.77, W 1.73, N 2.07, V 2.24, M 1.74
